Target: His-Nudel^1–201 (UniProt Q9GZM8)
Assay: ITC

UniProt Q9GZM8, sequence (Q9GZM8 1-201): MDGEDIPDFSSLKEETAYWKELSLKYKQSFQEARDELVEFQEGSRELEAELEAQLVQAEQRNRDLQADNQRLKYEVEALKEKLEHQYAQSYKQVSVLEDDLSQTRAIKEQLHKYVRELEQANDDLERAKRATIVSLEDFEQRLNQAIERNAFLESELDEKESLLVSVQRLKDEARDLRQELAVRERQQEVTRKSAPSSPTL

Substance: His-DIC (natural protein)
- Kd: 7.8 µM

Substance: His-tagged Lis1 (from UniProt P43034 1-410) (natural protein)
- Kd: 0.41 µM
